For the test, the target named is R3B2 1-273 (RIIID and first dsRBD) (Mucor lusitanicus). The experiment in a line: SEC-MALS.

“R3B2 1-273 (RIIID and first dsRBD) (domain or fragment)” gave a stoichiometry N of 2.

Usually stoichiometry N stands for the number of molecules, sites or subunits per partner or assembly.

Source of the values: paper PMC8136814.
